Experimental data taken from patent publication US20190375823A1.

Key:
CD19 on Raji B cells = CD19 on Raji B cells (UniProt P15391); assay: cell-based or functional assay
CD3 on Jurkat T cells = CD3 on Jurkat T cells (UniProt P07766); assay: cell-based or functional assay
[1] = target: HER2 and HER3 on cells (MALME-3M or SKOV cells); assay: FACS on MALME-3M cells (2012529), FITC-labeled anti-HSA antibodies
[2] = target: HER2 and HER3 on cells (MALME-3M or SKOV cells); assay: FACS on SKOV cells (20120803), FITC-labeled anti-HSA antibodies; apparent Kd
[3] = target: HER2 and HER3 on cells (MALME-3M or SKOV cells); assay: FACS on SKOV-3 cells, FITC-labeled anti-HSA detection
[4] = target: HER2 and HER3 on cells (MALME-3M or SKOV cells); assay: FACS on MALME-3M cells, FITC-labeled anti-HSA antibodies; upper end of the range
[5] = target: HER2 and HER3 on cells (MALME-3M or SKOV cells); assay: FACS on MALME-3M cells, FITC-labeled anti-HSA antibodies; lower end of the range
[6] = target: HER2 and HER3 on cells (MALME-3M or SKOV cells); assay: FACS on MALME-3M cells (20120529), FITC-labeled anti-HSA antibodies; apparent Kd
[7] = target: HER2 and HER3 on cells (MALME-3M or SKOV cells); assay: FACS; column head prints Bmax (MALME 20120603); design: unit not given here

Chain of CD19 on Raji B cells (P15391 20-556 limits assumed): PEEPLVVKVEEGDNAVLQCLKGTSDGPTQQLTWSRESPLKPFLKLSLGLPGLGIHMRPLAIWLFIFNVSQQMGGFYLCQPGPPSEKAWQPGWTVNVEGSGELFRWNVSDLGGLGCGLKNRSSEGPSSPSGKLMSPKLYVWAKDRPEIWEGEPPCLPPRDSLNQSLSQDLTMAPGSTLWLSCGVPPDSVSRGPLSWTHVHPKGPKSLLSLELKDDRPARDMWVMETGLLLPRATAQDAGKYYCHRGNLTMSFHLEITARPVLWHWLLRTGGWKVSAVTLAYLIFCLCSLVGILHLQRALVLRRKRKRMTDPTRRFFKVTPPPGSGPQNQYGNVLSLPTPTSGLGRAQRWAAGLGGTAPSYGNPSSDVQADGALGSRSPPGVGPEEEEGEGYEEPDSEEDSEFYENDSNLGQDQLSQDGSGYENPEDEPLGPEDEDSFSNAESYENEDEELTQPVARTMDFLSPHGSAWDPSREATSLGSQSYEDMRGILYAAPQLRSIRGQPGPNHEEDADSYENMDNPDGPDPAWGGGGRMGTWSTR
Chain of CD3 on Jurkat T cells (P07766 23-207): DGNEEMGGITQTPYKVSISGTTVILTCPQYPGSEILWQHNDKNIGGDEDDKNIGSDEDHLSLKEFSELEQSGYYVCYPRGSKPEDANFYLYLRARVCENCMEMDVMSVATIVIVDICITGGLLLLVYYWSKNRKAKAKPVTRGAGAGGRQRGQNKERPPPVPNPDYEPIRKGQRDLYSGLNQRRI

Whole cell bridging by FACS (Jurkat-violet + RAJI-FarRed): % of events labeled both violet and Far-red; needs binding of both CD3 and CD19 (% of total cells) (CD19 on Raji B cells)	Whole cell bridging by FACS (Jurkat-violet + RAJI-FarRed): % of events labeled both violet and Far-red; needs binding of both CD3 and CD19 (% of total cells) (CD3 on Jurkat T cells)	Bmax [1]	Kd [2]	EC50 (read off the curve) [3]	Kd [4]	Kd [5]	Kd [6]	Bmax [7]	Substance
21	21	–	–	–	–	–	–	–	v891: anti-CD3xCD19 BiTE control (bispecific antibody)
–	–	1470	10.7 nM	10 nM	55 nM	5 nM	12000 nM	6580	v1087: benchmark control variant of MM-111 (anti-Her3 H3 scFv - AAS - albumin - AAAL - anti-Her2 B1D2 scFv) (bispecific antibody)
